Results published in paper PMC4376941, “The Gene YALI0E20207g from Yarrowia lipolytica Encodes an N-Acetylglucosamine Kinase Implicated in the Regulated Expression of the Genes from the N-Acetylglucosamine Assimilatory Pathway” (PLoS ONE, 2015).

Substrate: Nc1ncnc2c1ncn2[C@@H]1O[C@H](COP(=O)(O)OP(=O)(O)OP(=O)(O)O)[C@@H](O)[C@H]1O
Experiment: purified protein
Assay type: biochemical, Yarrowia lipolytica
Settings: 4 mM NAGA, 0.1 M Tris-HCl pH 7.5, 30 °C, mean of two preparations

B1: YlNag5 (YALI0E20207p), N-acetylglucosamine (NAGA) kinase (Yarrowia lipolytica CLIB122) (protein)
chain: MSMGDDDRAYHHQMSVIVTAANANLPGHGKGPLVSVSSELLTKESHLMYDFERYVARNPSRFNQKVLDNLRIHHTYTRSSLDTLVNEFLAEITPACANRDAPSMLPSKMGSLPNDSLTGSVLSIDIGGSTLRGSMVDLEKMTVTDSVQHLIPDTVKNYSGSDFFDWIVERIMPLVKDCTATIIPIGLSWSFPIFQPHISSGLIQTMGKGYGVADEIINQDLKELFETHFASHGKTVEVGAILNDSVASLVAANYISNAPLCLILGTGINVSALIPKDQLKKTEQDQDKYIVNCEASLFGQCVSKTCWDLELDQALERPGFQPLESLSSGRYLGEICRLILRDLSKTGFLSRPDVGPYELTTAEVADLETADSGELDYVQDIILATSDRSAALASAFITAIYKLTGSDCESPSIAYDGTMVQKYPNFRPRMQQRLREQGLNVTFVAVEEGTVYGSAIACASQLSQ
notes: N-terminal GST fusion (pGEX-4T-2, plasmid pCL151), full-length ORF, expressed in E. coli BL21(DE3), glutathione-Sepharose eluted, tag not reported cut
B1 showed a Km of 1000 µM.
